For data set [1], the target named is DNA polymerase beta D160N (UniProt P06746 1-335, D160N). As to the kind of experiment: active site titration.
Data set [2] has as its target DNA polymerase beta WT (UniProt P06746 1-335). The data set can be described thus: active site titration.

The term Kd denotes the constant that tells how readily two partners part at equilibrium. Higher therefore signals lower affinity.

B1: 1 bp-gap (dsDNA)
DNA 1: CGCGCCAATCGAGCCATGTCGT
DNA 2: GTCAACGACCCACCATTCAAGA
DNA 3: TCTTGAATGGTGGGTCGTTGACGACGACATGGCTCGATTGGCGCG
As to B1, the Kd turned out to be 21 nM in data set [1] and 16 nM in data set [2].

The values are drawn from PMC3624760.
